Results on 2 molecules are retold here after US20250051467A1 (JIANGSU HENGRUI PHARMACEUTICALS, published 2025).

Residue numbers refer to the chain shown, from its start.

For orientation: EC50 means the concentration giving half of the maximal effect. Read a low EC50 as higher potency in that assay. Usually Kd stands for a measure of binding affinity in units of concentration. Low values mean a tighter complex, high ones a looser complex. What is called koff is a measure of how fast the partners let go of each other. A high value points to fast dissociation. One may read the kon as a measure of how fast the partners come together. The low end stands for slower complex formation, the high end for faster complex formation. The EC50 (read off the curve) is the concentration that produces a half-maximal response.

Assay [1] has as its target T1, h-FAP-His (human, UniProt Q12884 26-760).
T1 construct: range 26-760; Bought recombinant protein with a His tag; also called human FAP-His protein; FAP recombinant protein with a His tag
Kind of assay: ELISA, human FAP-His coated. Here is the method: A FAP recombinant protein with a His tag was directly used for coating. After the antibodies were added, a secondary antibody (an HRP-conjugated anti-human IgG antibody) and the HRP substrate TMB were added to measure the binding activity of the antibodies to the antigen. The assay comprises the following steps: A […] solution of human FAP-His protein was used to coat a 96-well microplate at 100 μL/well, and the plate was incubated overnight at 4° C. After a thorough wash, a blocking solution was added at 200 μL/well, and the plate was incubated at room temperature for 2 h. After a thorough wash, dilutions of test anti-FAP antibodies were added at 100 μL/well. The plate was incubated at room temperature for 1 h. After a thorough wash, a 1:20,000 dilution of an HRP-labeled goat anti-human IgG secondary antibody was added at 100 μL/well. The plate was incubated at room temperature for 1 h. After a thorough wash, TMB was added at 100 μL/well, and the plate was incubated in the dark for 15 min. 0.16 M sulfuric acid was added at 50 μL/well. The OD value at 450 nm was measured on a Thermo MultiSkanFc microplate reader, and the binding EC₅₀ values of the anti-FAP antibodies were calculated.
On the technique in general: ELISA stands for enzyme-linked immunosorbent assay.

The target in assay [2] is T1, h-FAP-His. Kind of assay: SPR, antibody captured by anti-human IgG Fc, h-FAP-His analyte. Here is the method: (§1) A CM5 sensor chip was used, and HBS-EP+buffer solution (10 mM HEPES, 150 mM NaCl, 3 mM EDTA, 0.05% surfactant P20) was used as the mobile phase. An anti-human IgG (Fc) antibody was made into a […] solution in a 10 mM sodium acetate buffer solution (pH 5.0) and immobilized by amino coupling. The test antibodies were diluted in HBS-EP+buffer solution and captured by the anti-human IgG (Fc) antibody on chip channels. h-FAP-His was dissolved in HBS-EP+buffer solution to prepare an analyte, and the analyte was serially diluted 2-fold. The diluted antibodies were passed through the experimental and reference channels at a flow rate of […], with 1 min of binding and 15 min of disassociation. 10 mM Glycine pH 1.5 was passed as a regeneration buffer solution for 30 s at a flow rate of […]. Data were analyzed. […] However, the binding affinities of the other anti-FAP antibodies obtained by screening at the same time in the present disclosure, such as Ab2, Ab4 and Ab5 (sequences not shown), for the antigen are lower than that of 28H1.
(In general: In SPR one partner is held on a chip, and binding of the other changes the refractive index at the surface.)

Assay [3] addresses T1, h-FAP-His. The assay is described as follows: SPR, h-FAP-His analyte; lower end tied to Ab14 by Table 6. Here is the method: as §1
The next assay deals with T2, mouse FAP on CHOK1 cells (mouse, UniProt P97321 1-761).
T2 construct: whole, on cells; also called cell surface mouse FAP
T2 sequence (P97321 whole entry): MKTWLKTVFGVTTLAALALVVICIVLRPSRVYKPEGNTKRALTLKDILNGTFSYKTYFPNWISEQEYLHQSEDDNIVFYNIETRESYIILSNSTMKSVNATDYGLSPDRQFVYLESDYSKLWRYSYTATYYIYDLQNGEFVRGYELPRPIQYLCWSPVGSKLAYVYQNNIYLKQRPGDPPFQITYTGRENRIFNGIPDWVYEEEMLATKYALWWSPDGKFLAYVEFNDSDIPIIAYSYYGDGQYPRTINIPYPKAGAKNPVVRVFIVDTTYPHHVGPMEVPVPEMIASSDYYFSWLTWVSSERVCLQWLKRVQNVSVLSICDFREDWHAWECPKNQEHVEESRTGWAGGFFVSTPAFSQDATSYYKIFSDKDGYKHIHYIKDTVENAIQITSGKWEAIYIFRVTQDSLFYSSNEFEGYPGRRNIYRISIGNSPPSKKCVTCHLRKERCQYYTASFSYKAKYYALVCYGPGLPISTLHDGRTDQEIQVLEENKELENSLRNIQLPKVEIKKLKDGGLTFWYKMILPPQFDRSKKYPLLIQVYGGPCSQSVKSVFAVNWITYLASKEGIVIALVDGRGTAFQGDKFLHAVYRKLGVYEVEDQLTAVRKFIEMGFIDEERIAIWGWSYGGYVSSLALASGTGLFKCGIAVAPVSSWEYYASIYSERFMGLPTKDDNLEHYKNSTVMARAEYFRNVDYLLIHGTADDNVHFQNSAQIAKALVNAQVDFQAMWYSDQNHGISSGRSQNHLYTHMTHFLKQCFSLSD
The assay is described as follows: FACS, percent of marked cells overexpressing mouse FAP, anti-hIgG Alexa Fluor-647 secondary antibody. Here is the method: (§2) A FACS assay was used to measure the binding properties of anti-FAP antibodies on cells. The assay comprises the following steps: A CHO cell line overexpressing human FAP was constructed and plated (1E5/well). The test antibodies were added at 100 μL/well. The highest concentration was 100 nM. A 5-fold dilution was performed, yielding 8 concentrations in total. The plate was incubated at 4° C. for 1 h. Anti-hIgG Alexa Fluor-647 was added as a secondary antibody in the ratio of 1:500. The plate was incubated at 4° C. for 30 min, and a FACS assay was performed. Antibodies that bind to FAP can mark cells. The relation between the percentage of the marked cells that over-express human FAP among all cells and the antibody concentration is shown in FIG. 1. The relation between the percentage of the marked cells that over-express mouse FAP among all cells and the antibody concentration is shown in FIG. 2.
(A flow cytometer gives signals particle by particle.)

A further assay deals with T3, human FAP on CHO cells (human, UniProt Q12884 1-760).
T3 construct: whole, on cells; also called CHO cell line overexpressing human FAP; CHOK1/FAP
The assay is described as follows: FACS, CHO cells overexpressing human FAP. Here is the method: as §2

Assay [4] addresses T1, h-FAP-His. The assay is described as follows: SPR, h-FAP-His analyte; upper end tied to Ab15 by Table 6. Here is the method:
as §1

B1: Ab14 (antibody, human IgG1, kappa, L234A L235A, V domains shown)
VH: QVQLQQSGVEVKKPGASVTVSCRASGYSFADHFIHWVRQAPGQGFQWMGWINPNRGVTHHAQDFQGRVAMTRDMSTDTVYMELTSLRSDDTAVYYCARDASLTARPYYFYGFDVWGQGTLVTVSS
VL: EIVLTQSPSSVSASVGDRVTITCRASQGISSWLAWYQQKPGKAPKLLIYAASSLQSGVPSRFSGSGSGTDFTLTISSLQPEDFATYYCQQANSFPLTFGGGTKVEIKR
notes: Fully human, IgG1 / kappa; also called anti-FAP antibody Ab14; Ab114
As for B1, a half-maximal response with h-FAP-His [1] (EC50) required 417000 ng/mL. Moreover, in the assay with h-FAP-His [2], binding was put at a Kd of 365 pM, the “Ratio of KD of 28H1 to KD of test antibody” value came to 3.6, the “Ratio of Kd of 28H1 to Kd of test antibody” value was 2.1 and the koff was 0.000121 s⁻¹. Further, the kon with h-FAP-His [2] was determined as 332000 M⁻¹ s⁻¹. In the assay with h-FAP-His [3], the “fold affinity over 28H1” value was 3 to 6 times. Moreover, the concentration giving a half-maximal response (EC50 (read off the curve)) with mouse FAP on CHOK1 cells is about 8 ng/mL. In addition, the EC50 with human FAP on CHO cells came out at 0.474 ng/mL.

B2: Ab15 (antibody, human IgG1, kappa, L234A L235A, V domains shown)
VH: B1 VH with V2M, Q5V, V9A, A100E
VL: B1 VL with L46S, L96P
notes: Fully human, IgG1 / kappa; also called anti-FAP antibody Ab15
Take B2: the half-maximal effective concentration (EC50) with h-FAP-His [1] was determined as 321000 ng/mL. Moreover, the “fold affinity over 28H1” value with h-FAP-His [4] was 3 to 6 times. In the assay with h-FAP-His [2], binding was put at a Kd of 215 pM, the “Ratio of KD of 28H1 to KD of test antibody” value worked out at 6.1, the “Ratio of Kd of 28H1 to Kd of test antibody” value was 2.43 and the koff was found to be 0.000105 s⁻¹. Also, the on-rate constant (kon) with h-FAP-His [2] is 488000 M⁻¹ s⁻¹. Also, the “EC50 (read off the curve)” value with mouse FAP on CHOK1 cells was about 8 ng/mL. In the assay with human FAP on CHO cells, this molecule gave a concentration giving a half-maximal response (EC50) of 0.486 ng/mL.
